Like-named read-outs stand apart in the source and are kept apart here.
Key:
Assay in all cases: SPR Biacore T200, antibody captured by anti-His, albumin as analyte
[1] = target: T1, dog serum albumin (dog, UniProt P49822 25-608)
T1 construct: also called Dog SA; dog albumin
Experimental: (§1) The anti-HSA antibody 7_Hu_10-6his was transiently expressed in HEK293E cells. After affinity purification with a nickel column, the affinity constants of the antibody for human, monkey, mouse, rat, dog and rabbit albumins were determined using a Biacore T200 (GE Healthcare) instrument. Firstly, amino coupling was performed on a CM5 S series chip (GE, Cat. 29-1049-88) by using an amino coupling kit (GE, Cat. BR-1000-50) and a His capture kit (GE, Cat. 28-9950-56) according to the kit manuals. The surface response value reached about 10000 RU. The chip was then blocked with ethanolamine for later use. The 6His-tagged humanized anti-HSA antibodies were each captured onto the anti-his chip through affinity. Then, different concentrations of human, monkey, mouse, rat, dog and rabbit albumins were flowed over the surface of the chip, and the reaction signals were detected in real-time using the Biacore instrument to obtain the association and dissociation curves. Finally, fitting was performed with a Langmuir 1:1 binding model using BIAevaluation version 4.1, GE software to obtain the affinity constants. The buffer used in the experiment was an HBS-EP solution (10 mM HEPES, 150 mM NaCl, 3 mM EDTA, 0.05% P20, pH 7.4, GE, Cat. #BR-1006-69). 20 After the end of each cycle, the chip was regenerated using glycine-hydrochloric acid (pH 1.5) (GE, Cat. #BR-1003-54).

[2] = target: T2, rat serum albumin (rat)
T2 chain: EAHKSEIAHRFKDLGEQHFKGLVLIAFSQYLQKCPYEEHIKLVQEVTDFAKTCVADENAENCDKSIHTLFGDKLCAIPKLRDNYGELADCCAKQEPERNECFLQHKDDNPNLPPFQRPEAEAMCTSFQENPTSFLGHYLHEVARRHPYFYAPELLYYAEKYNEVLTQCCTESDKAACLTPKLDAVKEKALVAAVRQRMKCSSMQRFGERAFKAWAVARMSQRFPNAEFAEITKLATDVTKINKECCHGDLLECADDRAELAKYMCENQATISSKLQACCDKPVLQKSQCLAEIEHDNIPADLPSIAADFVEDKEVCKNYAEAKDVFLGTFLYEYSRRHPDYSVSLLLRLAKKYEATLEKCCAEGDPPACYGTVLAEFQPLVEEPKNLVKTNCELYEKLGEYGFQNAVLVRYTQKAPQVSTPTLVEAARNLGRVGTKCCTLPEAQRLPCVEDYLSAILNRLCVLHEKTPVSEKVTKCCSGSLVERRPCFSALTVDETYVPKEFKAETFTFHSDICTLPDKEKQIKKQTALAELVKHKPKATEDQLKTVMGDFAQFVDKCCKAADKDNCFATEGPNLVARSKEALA
Experimental: as §1

[3] = target: mouse serum albumin (mSA) (mouse)
Experimental: as §1

[4] = target: T3, monkey serum albumin (CySA) (monkey)
T3 chain: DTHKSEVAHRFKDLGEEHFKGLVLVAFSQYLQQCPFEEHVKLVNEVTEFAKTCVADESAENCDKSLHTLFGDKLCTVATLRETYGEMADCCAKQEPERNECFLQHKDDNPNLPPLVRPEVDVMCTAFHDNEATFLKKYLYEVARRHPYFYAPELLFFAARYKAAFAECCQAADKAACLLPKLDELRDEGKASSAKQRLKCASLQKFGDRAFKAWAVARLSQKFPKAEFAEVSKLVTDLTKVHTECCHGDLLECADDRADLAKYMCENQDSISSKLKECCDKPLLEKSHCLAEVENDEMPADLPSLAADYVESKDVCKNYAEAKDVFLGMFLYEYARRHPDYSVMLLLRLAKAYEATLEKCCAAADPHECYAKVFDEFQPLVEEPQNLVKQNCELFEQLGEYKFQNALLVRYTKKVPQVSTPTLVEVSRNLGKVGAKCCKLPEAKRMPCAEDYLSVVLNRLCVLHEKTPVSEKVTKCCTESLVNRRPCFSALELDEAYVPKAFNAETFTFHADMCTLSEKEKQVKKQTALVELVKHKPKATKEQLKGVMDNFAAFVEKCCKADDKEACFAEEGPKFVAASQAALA
Experimental: as §1

[5] = target: human serum albumin (HSA) (human)
Experimental: as §1

[6] = target: T4, rabbit serum albumin (rabbit, UniProt P49065 25-608)
T4 construct: also called Rabbit SA; rabbit albumin
Experimental: as §1

[7] = target: mouse serum albumin (mSA) (mouse); remark: listed apart in the source
Experimental: as §1, with “The” for “The anti-HSA antibody 7_Hu_10-6his was transiently expressed in HEK293E cells. After affinity purification with a nickel column, the”, “6His-tagged humanized anti-HSA antibodies” for “antibody”, “monkey” for “monkey, mouse, rat, dog”, “mouse” for “rabbit”, “#BR-1006-69).” for “#BR-1006-69). 20”

[8] = target: T3, monkey serum albumin (CySA)
Experimental: as §1, with “The” for “The anti-HSA antibody 7_Hu_10-6his was transiently expressed in HEK293E cells. After affinity purification with a nickel column, the”, “6His-tagged humanized anti-HSA antibodies” for “antibody”, “monkey” for “monkey, mouse, rat, dog”, “mouse” for “rabbit”, “#BR-1006-69).” for “#BR-1006-69). 20”

[9] = target: human serum albumin (HSA) (human); remark: listed apart in the source
Experimental: as §1, with “The” for “The anti-HSA antibody 7_Hu_10-6his was transiently expressed in HEK293E cells. After affinity purification with a nickel column, the”, “6His-tagged humanized anti-HSA antibodies” for “antibody”, “monkey” for “monkey, mouse, rat, dog”, “mouse” for “rabbit”, “#BR-1006-69).” for “#BR-1006-69). 20”

B1: #7_Hu_10-6His (VHH)
VHH: EVQLLESGGGLVQPGGSLRLSCAASGFTFLTSCMGWFRQAPGKEREGVSSIYTVGGSTFYTNSVKGRFTISRDNSKNTLYLQMNSLRAEDTAVYYCAAGSPARCRLRDPTTFDYWGQGTLVTVSS
Kd [1]: 342 nM | koff [1]: 0.0211 s⁻¹ | kon [1]: 61700 M⁻¹ s⁻¹ | Kd [2]: 158 nM | koff [2]: 0.00461 s⁻¹ | kon [2]: 29200 M⁻¹ s⁻¹ | Kd [3]: 653 nM | koff [3]: 0.0254 s⁻¹ | kon [3]: 38900 M⁻¹ s⁻¹ | Kd [4]: 14.5 nM | koff [4]: 0.000697 s⁻¹ | kon [4]: 47900 M⁻¹ s⁻¹ | Kd [5]: 10.6 nM | koff [5]: 0.000683 s⁻¹ | kon [5]: 64700 M⁻¹ s⁻¹ | binding result [6]: no binding | Kd [7]: 328 nM | koff [7]: 0.0196 s⁻¹ | kon [7]: 59700 M⁻¹ s⁻¹ | Kd [8]: 31 nM | koff [8]: 0.000545 s⁻¹ | kon [8]: 17600 M⁻¹ s⁻¹ | Kd [9]: 11.5 nM | koff [9]: 0.000347 s⁻¹ | kon [9]: 30100 M⁻¹ s⁻¹

Reference: patent publication US20250312444A1 (BEIJING TUO JIE BIOPHARMACEUTICAL, published 2025)
